Results as given in publication PMC4650709.

Target: Ara h 1 (peanut)
Test: SEC; purified Ara h 1; conditions not given

stoichiometry N: 3
Substance: Ara h 1 (natural protein)
